# Test system: Escherichia coli TOP10
# Assay: shrunken log2 fold change of peptide-encoding DNA abundance (4.5 h post-induction vs induction); higher = less antimicrobial activity (less host growth inhibition)
# Conditions: time post-induction: 4.5 h; library: site-saturation at positions 5, 18, 19, 20
# 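Further: peptides expressed intracellularly from a pBAD plasmid library in pooled LB shake-flask culture, induced with 0.3% L-arabinose, DNA abundance read by NGS, three biological replicates, DESeq2 with apeglm shrinkage.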
row,Sequence,shrunken log2 fold change
1,RRIRVRPPRLPRPRPRPGMRPRP,0.565
2,RRIRNRPPRLPRPRPRPFNWPRP,-0.123
3,RRIRQRPPRLPRPRPRPTNNPRP,-0.547
4,RRIRRRPPRLPRPRPRPLPAPRP,0.599
5,RRIRARPPRLPRPRPRPVHDPRP,0.146
6,RRIRIRPPRLPRPRPRPPWIPRP,-0.173
7,RRIRSRPPRLPRPRPRPHHGPRP,-0.0421
8,RRIRIRPPRLPRPRPRPRVAPRP,0.386
9,RRIRRRPPRLPRPRPRPGGVPRP,0.483
10,RRIRSRPPRLPRPRPRPAVKPRP,-0.177
11,RRIRCRPPRLPRPRPRPSHKPRP,-0.641
12,RRIRYRPPRLPRPRPRPWTTPRP,-0.000803
13,RRIRFRPPRLPRPRPRPQVTPRP,-0.367
14,RRIRCRPPRLPRPRPRPTIIPRP,-0.343
15,RRIRVRPPRLPRPRPRPRLLPRP,0.0401
16,RRIRHRPPRLPRPRPRPSHPPRP,0.0558
17,RRIRCRPPRLPRPRPRPMRLPRP,0.0914
18,RRIRKRPPRLPRPRPRPILTPRP,-0.149
19,RRIRYRPPRLPRPRPRPLGVPRP,-0.0163
20,RRIRIRPPRLPRPRPRPLQQPRP,-0.293
21,RRIRERPPRLPRPRPRPLYVPRP,-0.939
22,RRIRLRPPRLPRPRPRPHPLPRP,-0.152

row,Sequence,shrunken log2 fold change
1,RRIRIRPPRLPRPRPRPKRMPRP,-0.518
2,RRIRHRPPRLPRPRPRPKGNPRP,-0.124
3,RRIRRRPPRLPRPRPRPMYTPRP,-0.219
4,RRIRARPPRLPRPRPRPQHSPRP,0.283
5,RRIRYRPPRLPRPRPRPDVQPRP,-0.0317
6,RRIRARPPRLPRPRPRPAEAPRP,0.161
7,RRIRIRPPRLPRPRPRPQNHPRP,-0.871
8,RRIRSRPPRLPRPRPRPFWFPRP,-0.113
9,RRIRTRPPRLPRPRPRPDQGPRP,0.23
10,RRIRFRPPRLPRPRPRPSQSPRP,-0.0504
11,RRIRPRPPRLPRPRPRPDCTPRP,-0.167
12,RRIRQRPPRLPRPRPRPHRHPRP,-0.284
13,RRIRNRPPRLPRPRPRPHFGPRP,-0.104
14,RRIRGRPPRLPRPRPRPFMLPRP,-0.0447
15,RRIRVRPPRLPRPRPRPMQVPRP,0.121
16,RRIRLRPPRLPRPRPRPMRLPRP,0.0402
17,RRIRQRPPRLPRPRPRPGPEPRP,0.0674
18,RRIRIRPPRLPRPRPRPEWEPRP,0.068
19,RRIRYRPPRLPRPRPRPPMSPRP,-0.612
20,RRIRIRPPRLPRPRPRPLRRPRP,0.0866
21,RRIRPRPPRLPRPRPRPFTPPRP,-0.112
22,RRIRPRPPRLPRPRPRPDINPRP,-0.673

row,Sequence,shrunken log2 fold change
1,RRIRKRPPRLPRPRPRPIGNPRP,0.0844
2,RRIRCRPPRLPRPRPRPTLDPRP,0.337
3,RRIRVRPPRLPRPRPRPTNNPRP,-0.398
4,RRIRERPPRLPRPRPRPTMEPRP,-0.116
5,RRIRPRPPRLPRPRPRPFGVPRP,-0.112
6,RRIRLRPPRLPRPRPRPMGWPRP,0.203
7,RRIRVRPPRLPRPRPRPRYDPRP,-0.0252
8,RRIRERPPRLPRPRPRPMVGPRP,0.17
9,RRIRLRPPRLPRPRPRPQWMPRP,-0.0896
10,RRIRGRPPRLPRPRPRPNVSPRP,-0.0528
11,RRIRSRPPRLPRPRPRPKGIPRP,-0.357
12,RRIRMRPPRLPRPRPRPDVWPRP,1.19
13,RRIRIRPPRLPRPRPRPDGVPRP,-0.0166
14,RRIRSRPPRLPRPRPRPLQAPRP,0.302
15,RRIRFRPPRLPRPRPRPFESPRP,0.0452
16,RRIRNRPPRLPRPRPRPNPSPRP,-0.00451
17,RRIRDRPPRLPRPRPRPGYGPRP,-0.0481
18,RRIRYRPPRLPRPRPRPMISPRP,-0.126
19,RRIRRRPPRLPRPRPRPKSPPRP,0.189
20,RRIRNRPPRLPRPRPRPFHNPRP,-0.12
21,RRIRWRPPRLPRPRPRPMEDPRP,0.383
22,RRIRFRPPRLPRPRPRPETIPRP,-0.103

row,Sequence,shrunken log2 fold change
1,RRIRIRPPRLPRPRPRPSGVPRP,-0.666
2,RRIRTRPPRLPRPRPRPPWMPRP,-0.00314
3,RRIRKRPPRLPRPRPRPPTTPRP,0.452
4,RRIRNRPPRLPRPRPRPQGTPRP,-0.0148
5,RRIRCRPPRLPRPRPRPYMHPRP,-0.31
6,RRIRVRPPRLPRPRPRPPPMPRP,0.641
7,RRIRRRPPRLPRPRPRPCYGPRP,-0.214
8,RRIRYRPPRLPRPRPRPRPVPRP,0.0983
9,RRIRLRPPRLPRPRPRPNDPPRP,-0.213
10,RRIRARPPRLPRPRPRPPFEPRP,0.504
11,RRIRIRPPRLPRPRPRPGPKPRP,0.00436
12,RRIRTRPPRLPRPRPRPDIPPRP,-0.0961
13,RRIRERPPRLPRPRPRPYCLPRP,-0.123
14,RRIRFRPPRLPRPRPRPESWPRP,0.53
15,RRIRWRPPRLPRPRPRPLELPRP,0.106
16,RRIRWRPPRLPRPRPRPTSNPRP,-0.0919
17,RRIRHRPPRLPRPRPRPTRHPRP,0.36
18,RRIRPRPPRLPRPRPRPMHHPRP,-0.194
19,RRIRTRPPRLPRPRPRPCWQPRP,0.0902
20,RRIRTRPPRLPRPRPRPYNTPRP,-0.737
21,RRIRRRPPRLPRPRPRPKEGPRP,-0.000243
22,RRIRPRPPRLPRPRPRPAREPRP,0.68

row,Sequence,shrunken log2 fold change
1,RRIRARPPRLPRPRPRPHEPPRP,0.00298
2,RRIRWRPPRLPRPRPRPDGDPRP,0.36
3,RRIRTRPPRLPRPRPRPCFPPRP,-0.141
4,RRIRLRPPRLPRPRPRPHTNPRP,-0.377
5,RRIRGRPPRLPRPRPRPVHEPRP,0.434
6,RRIRVRPPRLPRPRPRPFIDPRP,0.0294
7,RRIRRRPPRLPRPRPRPFDKPRP,0.0721
8,RRIRCRPPRLPRPRPRPQVNPRP,-0.246
9,RRIRFRPPRLPRPRPRPLMDPRP,-0.0516
10,RRIRTRPPRLPRPRPRPPMFPRP,-0.097
11,RRIRLRPPRLPRPRPRPHTLPRP,-0.224
12,RRIRNRPPRLPRPRPRPEASPRP,0.0343
13,RRIRWRPPRLPRPRPRPHMNPRP,-0.667
14,RRIRARPPRLPRPRPRPTTVPRP,0.45
15,RRIRMRPPRLPRPRPRPPWCPRP,0.831
16,RRIRKRPPRLPRPRPRPNSCPRP,0.188
17,RRIRYRPPRLPRPRPRPKGIPRP,-0.228
18,RRIRLRPPRLPRPRPRPSLKPRP,0.0368
19,RRIRARPPRLPRPRPRPQAGPRP,0.195
20,RRIRERPPRLPRPRPRPFDFPRP,-0.146
21,RRIRCRPPRLPRPRPRPPPWPRP,1.06

# Source: the supplement of paper PMC9112550, “Optimization of the antimicrobial peptide Bac7 by deep mutational scanning” (BMC Biology, 2022)
